The source of these data is PMC11033462.

The target in assay [1] is PLAA p.Ile609Thr, Myc-tagged (human) (UniProt Q9Y263). The experiment in a line: co-IP; Myc-PLAA overexpressed in HEK293T, captured from cleared lysate on Myc-beads (4°C, 2 h), eluate probed by western blot (anti-VCP, anti-SAKS1, anti-MYC); p97 band divided by the Myc-PLAA band. (In general: A western blot detects proteins with antibodies after separation by electrophoresis.)

Assay [2] addresses PLAA p.Leu795Met, Myc-tagged (human) (UniProt Q9Y263). The description is as above.
Assay [3] deals with PLAA p.Ile609Thr, Myc-tagged (human) (UniProt Q9Y263). The experiment in a line: affinity purification with mass spectrometry; Myc-PLAA overexpressed in HEK293T, captured from cleared lysate on Myc-beads (20 mM HEPES pH 7.5, 100 mM NaCl, 0.2% n-dodecyl-β-D-maltoside, 4°C, 2 h), eluted with 10 M urea, LC-MS/MS; cut off 5-fold enrichment over untransfected controls; protein abundance as a ratio to PLAA.

The target in assay [4] is PLAA p.Leu795Met, Myc-tagged (human) (UniProt Q9Y263). The assay is described as above.

On to “VCP/p97 (from UniProt P55072 1-806) (natural protein)”, for which the percent decrease of p97 in the IP (ratio to PLAA) against WT PLAA in assay [1] was determined as 80%; in assay [2] it was 50%; in assay [3] it was 50%; in assay [4] it was 20%.
